Results: the supplement of paper PMC9170038

Tested on: MS2 coat protein
Assay: apparent KD of MS2 coat protein; designed switch direction (-1 OFF switch, 1 ON switch): -1; higher = weaker reporter binding
Summary of the method: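 Normalised cluster fluorescence was curve-fitted, and each design's median over clusters is its apparent KD. Before this, SNAP-549-labelled MS2 coat protein was titrated from 0.7 or 1.5 nM, doubling to 3 µM, over RNA switches transcribed on Illumina chips by stalled E. coli RNA polymerase. Titrations had no input, 200 uM small-molecule ligand, or an oligonucleotide input, and steps lasted 0.8–1.5 h (lowest) to 10–20 min (highest).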

[1] = input ligand: microRNA oligo, concentration not stated
[2] = Eterna round: R95, input ligand: FMN 200 uM
[3] = Eterna round: R95, input ligand: microRNA oligo, concentration not stated
[4] = Eterna round: R95, input ligand: none

## AGCUGGAGAGGAUAUACGUAGGAAAAAAAAGUCUGAUCACUACAUGAGGAUCACCCAUGUAGAAGGCUCUGGCA [Ex2 Design 162: Sub-opt 26] (Eterna round: R96, puzzle: Exclusion 2)
Input ligand: FMN 200 uM
  apparent KD of MS2 coat protein: 104 nM
[1]
  apparent KD of MS2 coat protein: 16.5 nM
Input ligand: none
  apparent KD of MS2 coat protein: 20.5 nM

## AGCUGUGGCCGAGGAUAUACACAUGAGGAUCACCCAUGUAGGCGCGGAUACGCGCUAAAAUAAAUGUAGAAGGCGGUCUCAGCA [Eli eng2 - 055] (Eterna round: R96, puzzle: Exclusion NG 2)
Input ligand: FMN 200 uM
  apparent KD of MS2 coat protein: 7.06 nM
[1]
  apparent KD of MS2 coat protein: 5 nM
Input ligand: none
  apparent KD of MS2 coat protein: 11.8 nM

## AGCUGUGGCCGAGGAUAUCACAUGAGGAUCACCCAUGUACAUGAUUAGGCCUGGUAACAGGCUCGUGAGAAGGCGGUCUCAGCA [Eli eng2 - 010] (Eterna round: R96, puzzle: Exclusion NG 2)
Input ligand: FMN 200 uM
  apparent KD of MS2 coat protein: 26.7 nM
[1]
  apparent KD of MS2 coat protein: 31.1 nM
Input ligand: none
  apparent KD of MS2 coat protein: 37.6 nM

## AGCUGUGGCCGAGGAUAUCACGAACCAUGGAAAACCAUGGAACUCACACAUGAGGAUCACCCAUGUGAGAAGGCGGUCUCAGCA [Eli eng2 - 021] (Eterna round: R96, puzzle: Exclusion NG 2)
Input ligand: FMN 200 uM
  apparent KD of MS2 coat protein: 16.3 nM
[1]
  apparent KD of MS2 coat protein: 8.68 nM
Input ligand: none
  apparent KD of MS2 coat protein: 15.1 nM

## AGCUGUGGCCGAGGAUAUCUAAAACCUCAAAACGAAAUAUAAUCGAACAUGAGGAUCACCCAUGUAGAGAAGGCGGUCUCAGCA [Eli eng2 - 031] (Eterna round: R96, puzzle: Exclusion NG 2)
[1]
  apparent KD of MS2 coat protein: 214 nM

## AGCUGUGGCCGAGGAUAUCUACAUGAGGAUCACCCAUGUAAAGGGUGUAUCGGGAAAACCUCGAUGGAGAAGGCGGUCUCAGCA [Eli eng2 - 047] (Eterna round: R96, puzzle: Exclusion NG 2)
Input ligand: FMN 200 uM
  apparent KD of MS2 coat protein: 95.5 nM
[1]
  apparent KD of MS2 coat protein: 45.3 nM
Input ligand: none
  apparent KD of MS2 coat protein: 296 nM

## AGCUGUGGCCGAGGAUAUCUGUCCCAUAAAACCGAAAUAUAAUCGGACAUGAGGAUCACCCAUGUAGAGAAGGCGGUCUCAGCA [Eli eng2 - 098] (Eterna round: R96, puzzle: Exclusion NG 2)
[1]
  apparent KD of MS2 coat protein: 31.3 nM

## AGCUUUUUGUUCGUCUUAUACAUGAGGAUCACCCAUGUAUUGGACCGCAUCGAUAGAUGUAGACCAAGAAGCAUGGG [Omdei Mir OFFv1 C5] (Eterna round: R97, puzzle: Sensor, turn-off variant 1)
Input ligand: FMN 200 uM
  apparent KD of MS2 coat protein: 50.6 nM
Input ligand: none
  apparent KD of MS2 coat protein: 48.2 nM

## AGGAAGCAAGGAUAUACGAGGAGAAGGUGUCCAUCUAAAGGACAUGAGGAUCACCCAUGUAGAAGGUGCGAGAA [JR_Exclu2_Sub049] (puzzle: Exclusion 2)
[2]
  apparent KD of MS2 coat protein: 49.6 nM
[3]
  apparent KD of MS2 coat protein: 210 nM
[4]
  apparent KD of MS2 coat protein: 189 nM

## AGGCACUAAGGAUAUACAAAGGUGCUGCGUAUGCUAGCCAGACAUGAGGAUCACCCAUGUAGAAGGUAGGAAUA [EX2 B.14] (Eterna round: R97, puzzle: Exclusion 2)
Input ligand: FMN 200 uM
  apparent KD of MS2 coat protein: 16.4 nM
Input ligand: none
  apparent KD of MS2 coat protein: 16.8 nM

## AGGCCUCGAGGAUAUACAUGAGGAUCACCCAUGUCAUAAUAGAUUGUUAUGAGACAUCGUAGAAGGCGAUGGCC [Eternabot (L2) Solution 98] (Eterna round: R97, puzzle: Exclusion 3)
Input ligand: FMN 200 uM
  apparent KD of MS2 coat protein: 78.1 nM
Input ligand: none
  apparent KD of MS2 coat protein: 30 nM

## AGGUAGUCAGGAUAUUAGGAGUAGCGGGAUAACGCUACGAGUGAGAAGGGACAUGAGGAUCACCCAUGUUUAUU [JR_Ex4_Sub069] (Eterna round: R97, puzzle: Exclusion 4)
Input ligand: FMN 200 uM
  apparent KD of MS2 coat protein: 70.3 nM
Input ligand: none
  apparent KD of MS2 coat protein: 26.8 nM

## AGGUCAGAAGGAUAUACAUGAGGAUCACCCAUGUGGGAUACAACGAGCCGUUGUUCAGGUAGAAGGUCUAAAAU [Eternabot (Original) Solution 33] (Eterna round: R97, puzzle: Exclusion 3)
Input ligand: FMN 200 uM
  apparent KD of MS2 coat protein: 86 nM
Input ligand: none
  apparent KD of MS2 coat protein: 77.3 nM

## AGGUGCUUCAGGAGACAUGAGGAUCACCCAUGUUGAGUUAGCGAGGAUAUCGGUAACCAUUGUGAUGAGAAGGCGCAAACCAGA [Ex NG3 #44] (Eterna round: R96, puzzle: Exclusion NG 3)
Input ligand: FMN 200 uM
  apparent KD of MS2 coat protein: 60.5 nM
[1]
  apparent KD of MS2 coat protein: 15.6 nM
Input ligand: none
  apparent KD of MS2 coat protein: 47.3 nM

## AGGUGCUUCUGGAAACAUGAGGAUCACCCAUGUUGAGUUAGCGAGGAUAUCGGUAACAAUUGUUAUGAGAAGGCGCAAACCAGA [Ex NG3 #36] (Eterna round: R96, puzzle: Exclusion NG 3)
Input ligand: FMN 200 uM
  apparent KD of MS2 coat protein: 17 nM
[1]
  apparent KD of MS2 coat protein: 12.5 nM
Input ligand: none
  apparent KD of MS2 coat protein: 20.7 nM

## AGUAACCGUCACGAAAGUGAUGGUUACACAAGCAAAUGUACAUGAGGAUCACCCAUGUCCUCAUUUGCUCGUCUUAU [Sensor 3 - 45] (puzzle: Sensor v3, turn-off variant 2)
[2]
  apparent KD of MS2 coat protein: 17.2 nM
[3]
  apparent KD of MS2 coat protein: 379 nM
[4]
  apparent KD of MS2 coat protein: 18.3 nM

## AGUAACCGUCACGAAAGUGAUGGUUACACAAGUGUAAUAACAUGAGGAUCACCCAUGUCCUCAUUUGCUCGUUUUAU [Sensor 3 - 37] (puzzle: Sensor v3, turn-off variant 2)
[2]
  apparent KD of MS2 coat protein: 45.1 nM
[3]
  apparent KD of MS2 coat protein: 144 nM
[4]
  apparent KD of MS2 coat protein: 140 nM

## AGUAACUAUCACGAAAGUGAUAGUUACACAAGCAGUGACACAUGAGGAUCACCCAUGUCCUCAUUUGCUCGUCUUAU [Sensor 3 - 29] (puzzle: Sensor v3, turn-off variant 2)
[2]
  apparent KD of MS2 coat protein: 614 nM
[3]
  apparent KD of MS2 coat protein: 637 nM
[4]
  apparent KD of MS2 coat protein: 478 nM

## AGUACAUGAGGAUCACCCAUGUCAGUUAUCAAUGGCACGCCUAAGGAUAUUGAGCGUCAAAGGCUCAAGAAGGUAGCUUUAUGC [Eternabot solution 12] (Eterna round: R96, puzzle: Exclusion NG 3)
Input ligand: FMN 200 uM
  apparent KD of MS2 coat protein: 13.7 nM
[1]
  apparent KD of MS2 coat protein: 16.7 nM
Input ligand: none
  apparent KD of MS2 coat protein: 25.6 nM

## AGUACUAACACGAAAGUGUUAGUACAAUAAGCUUGUAAAACAUGAGGAUCACCCAUGUCCUCAUAAGCUCGUCUUAU [Mat - Sensor v3 - Turn-off var 2 - D47] (puzzle: Sensor v3, turn-off variant 2)
[2]
  apparent KD of MS2 coat protein: 250 nM
[3]
  apparent KD of MS2 coat protein: 11.5 nM
[4]
  apparent KD of MS2 coat protein: 446 nM

## AGUACUAACACGAAAGUGUUAGUACAAUAAGCUUGUGUUACAUGAGGAUCACCCAUGUCCUCAUAAGCUCGUCUUAG [Mat - Sensor v3 - Turn-off var 2 - D50] (puzzle: Sensor v3, turn-off variant 2)
[2]
  apparent KD of MS2 coat protein: 45.9 nM
[3]
  apparent KD of MS2 coat protein: 351 nM
[4]
  apparent KD of MS2 coat protein: 45.4 nM

## AGUACUAACACGGAUGUGUUAGUACAAUAAGCUUGUGAAACAUGAGGAUCACCCAUGUCCUCAUAAGCUCGUCUUAU [salish99_TOv2_r3_067] (puzzle: Sensor v3, turn-off variant 2)
[2]
  apparent KD of MS2 coat protein: 15.5 nM
[3]
  apparent KD of MS2 coat protein: 677 nM
[4]
  apparent KD of MS2 coat protein: 14.7 nM

## AGUACUAACACGUCGGUGUUAGUACAAUAAGCUUGUGAAACAUGAGGAUCACCCAUGUCCUCAUAAGCUCGUCUUAU [salish99_TOv2_r3_080] (Eterna round: R96, puzzle: Sensor v3, turn-off variant 2)
Input ligand: FMN 200 uM
  apparent KD of MS2 coat protein: 16.4 nM
[1]
  apparent KD of MS2 coat protein: 492 nM
Input ligand: none
  apparent KD of MS2 coat protein: 17.8 nM

## AGUACUAACACGUCGGUGUUAGUACAAUAAGCUUGUGAAACAUGAGGAUCACCCAUGUCCUCAUAAGCUCGUCUUAU [salish99_TOv2_r3_080] (puzzle: Sensor v3, turn-off variant 2)
[2]
  apparent KD of MS2 coat protein: 17.4 nM
[3]
  apparent KD of MS2 coat protein: 575 nM
[4]
  apparent KD of MS2 coat protein: 15.5 nM

## AGUACUAUCGCGAAAGCGAUAGUACAAAAAGCAAGUGAAACAUGAGGAUCACCCAUGUCCUCAUUUGCUCGUCUUAU [Mat - Sensor v2 -ver2- JL mod - D89] (Eterna round: R96, puzzle: Sensor v2, turn-off variant 2)
Input ligand: FMN 200 uM
  apparent KD of MS2 coat protein: 12.1 nM
[1]
  apparent KD of MS2 coat protein: 390 nM
Input ligand: none
  apparent KD of MS2 coat protein: 14.3 nM

## AGUACUGACGCGUCGGUGUUAGUACAAUAAGCUUGUGAAACAUGAGGAUCACCCAUGUCCUCAUAAGCUCGUCUUAU [salish99_TOv2_r3_082] (puzzle: Sensor v3, turn-off variant 2)
[2]
  apparent KD of MS2 coat protein: 15.9 nM
[3]
  apparent KD of MS2 coat protein: 720 nM
[4]
  apparent KD of MS2 coat protein: 15.4 nM

## AGUAGAUCUACGCUUGCGUGGAUCUGCUAUGCAGGUGUUACAUGAGGAUCACCCAUGUCCUCAUUUGUUCGUCUUAU [JL turnoff v2 99.15] (puzzle: Sensor v3, turn-off variant 2)
[2]
  apparent KD of MS2 coat protein: 135 nM
[3]
  apparent KD of MS2 coat protein: 111 nM
[4]
  apparent KD of MS2 coat protein: 185 nM

## AGUAGGUCUACCUUGGUGGAUCUGCAUAAAGCAAGUGAUACAUGAGGAUCACCCAUGUCCUCAUUUGCUCGUCUUAU [JL turnoff v2 99.21] (puzzle: Sensor v3, turn-off variant 2)
[2]
  apparent KD of MS2 coat protein: 14 nM
[3]
  apparent KD of MS2 coat protein: 216 nM
[4]
  apparent KD of MS2 coat protein: 14.1 nM
